Article PMC11196582 (Scientific Reports, 2024)

What was measured:
[1] = target: T1, Human IL-4Rα overexpressed on HEK293T cells (Homo sapiens (Human)., UniProt P24394); test: cell-based or functional assay
[2] = target: T2, Biotinylated IL-4Rα (Homo sapiens (assumed), UniProt P24394, biotin); test: SPR; iMSPR-ProX; biotinylated IL-4Rα immobilised on the sensor chip (A-Dex100) at 169.7 RU; Dup-scFv at 1.56-100 nM; regeneration with 10 mM glycine-HCl pH 1.5; 1:1 kinetic binding model; conditions: both partners purified
T2 construct: IL-4 receptor alpha (IL-4Rα); Probably a soluble extracellular construct of the human receptor (surmised); also called IL-4Ra; immobilized IL-4Rα

[3] = target: T1, Human IL-4Rα overexpressed on HEK293T …; test: flow cytometry on cells; human IL-4Rα-overexpressing HEK293T cells, 2x10^5 cells/tube in PBS; seven-point curve; Dup-scFv detected with anti-6xHIS antibody and Alexa Fluor-647 anti-mouse IgG, dupilumab with Alexa Fluor-647 anti-human IgG; fitted in GraphPad Prism 8; conditions: one partner purified

T1 sequence (P24394 26-825): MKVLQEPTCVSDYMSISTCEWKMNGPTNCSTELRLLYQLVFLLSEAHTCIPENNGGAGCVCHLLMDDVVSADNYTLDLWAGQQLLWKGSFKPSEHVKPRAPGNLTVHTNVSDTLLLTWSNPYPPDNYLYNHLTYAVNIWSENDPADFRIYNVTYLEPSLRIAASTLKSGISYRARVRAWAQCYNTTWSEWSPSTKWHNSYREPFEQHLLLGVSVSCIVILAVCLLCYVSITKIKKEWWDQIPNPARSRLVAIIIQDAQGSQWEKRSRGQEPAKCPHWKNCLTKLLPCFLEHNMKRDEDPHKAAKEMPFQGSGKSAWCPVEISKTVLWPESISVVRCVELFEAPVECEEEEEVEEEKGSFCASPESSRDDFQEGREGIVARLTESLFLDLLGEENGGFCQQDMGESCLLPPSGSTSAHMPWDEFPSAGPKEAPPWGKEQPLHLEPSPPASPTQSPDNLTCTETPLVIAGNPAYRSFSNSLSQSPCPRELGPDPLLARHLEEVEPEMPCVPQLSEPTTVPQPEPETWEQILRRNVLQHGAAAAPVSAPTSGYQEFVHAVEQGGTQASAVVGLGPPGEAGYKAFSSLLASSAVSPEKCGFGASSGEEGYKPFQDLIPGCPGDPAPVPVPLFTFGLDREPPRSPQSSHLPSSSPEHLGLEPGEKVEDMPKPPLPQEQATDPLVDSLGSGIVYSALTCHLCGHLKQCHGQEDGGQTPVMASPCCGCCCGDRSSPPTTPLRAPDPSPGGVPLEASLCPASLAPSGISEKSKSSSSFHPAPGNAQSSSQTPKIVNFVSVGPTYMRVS
T2 sequence (P24394 26-825): as above

B1: Dup-scFv with HDEL (single-chain variable fragment of dupilumab produced by Nicotiana benthamiana) (scFv, V domains shown)
VH: EVQLVESGGGLEQPGGSLRLSCAGSGFTFRDYAMTWVRQAPGKGLEWVSSISGSGGNTYYADSVKGRFTISRDNSKNTLYLQMNSLRAEDTAVYYCAKDRLSITIRPRYYGLDVWGQGTTVTVSS
VL: DIVMTQSPLSLPVTPGEPASISCRSSQSLLYSIGYNYLDWYLQKSGQSPQLLIYLGSNRASGVPDRFSGSGSGTDFTLKISRVEAEDVGFYYCMQALQTPYTFGQGTKLEIK
notes: VH region of dupilumab; linker, printed as (GGGGS)4 / 4 x G4S; VL region of dupilumab; The form without HDEL is GenBank PP711327; also called dupilumab-scFv; source: N. benthamiana leaves, Agrobacterium-mediated transient expression with p19, purified (Ni-NTA); not shown: His6, C-terminal, kept
IL-4-induced CCL26 mRNA (qPCR; more than 3000-fold with IL-4 alone) in HNECs with Dup-scFv 20 μg/ml on the apical side [1]: 1790 fold | Kd [2]: 0.476 nM | EC50 [3]: 17.3 nM

B2: Dupilumab (antibody, V domains shown)
VH: B1 VH
VL: B1 VL
notes: heavy chain of dupilumab (IgG4); light chain of dupilumab; IgG4 subclass monoclonal antibody (developed by Regeneron/Sanofi)
IL-4-induced CCL26 mRNA (qPCR; more than 3000-fold with IL-4 alone) in HNECs with dupilumab 100 μg/ml on the apical side [1]: 2200 fold | Kd [2]: 0.133 nM | EC50 [3]: 1.02 nM
